Test results: the supplement of paper PMC5998384

What was measured:
HeLa Kyoto [1] = test: thermal stability score vs G1/S (z-score of summed log2 fold changes over temperatures); higher = more thermally stable than in G1/S
HeLa Kyoto [2] = test: solubility in G1/S (NP-40 vs SDS abundance) (log2 ratio); higher = more soluble; conditions: cell cycle stage: G1/S
HeLa Kyoto [3] = test: solubility change mitosis vs G1/S (difference of NP-40 vs SDS log2 ratios) (log2 ratio difference); higher = more soluble in mitosis
HeLa Kyoto [4] = test: melting temperature (median over replicates), in situ; higher = more thermally stable
[5] = cell cycle stage: early G1 (4.5 h after nocodazole release)
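Throughout, for melting temperature (median over replicates), in situ: HeLa Kyoto cells synchronized by double thymidine or nocodazole block, proteins quantified by TMT10plex mass spectrometry, three independent biological replicates.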
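Throughout, for solubility change mitosis vs G1/S (difference of NP-40 vs SDS log2 ratios): synchronized HeLa Kyoto cells (double thymidine block for G1/S, nocodazole release for mitosis), protein amounts in NP-40 versus SDS lysates quantified by mass spectrometry, three biological replicates.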
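Throughout, for solubility in G1/S (NP-40 vs SDS abundance): HeLa Kyoto cells arrested at G1/S by double thymidine block, proteins quantified by TMT10plex mass spectrometry in mild NP-40 versus SDS extracts, three biological replicates.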
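Throughout, for thermal stability score vs G1/S (z-score of summed log2 fold changes over temperatures): synchronized HeLa Kyoto cells, proteins quantified by TMT10plex mass spectrometry, three biological replicates, mitosis taken 0.5 h after nocodazole release, G1/S directly after double thymidine block.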

| Sequence | thermal stability score (HeLa Kyoto [1]; [5]) | thermal stability score (HeLa Kyoto [1]; cell cycle stage: mitosis) | solubility in G1/S (log2) (HeLa Kyoto [2]) | solubility change mitosis (log2) (HeLa Kyoto [3]) | melting temperature (HeLa Kyoto [4]; cell cycle stage: G1/S) [°C] | melting temperature (HeLa Kyoto [4]; cell cycle stage: mitosis) [°C] |
| --- | --- | --- | --- | --- | --- | --- |
| MGTARWLALGSLFALAGLLEGRLVGEEEAGFGECDKFFYAGTPPAGLAADSHVKICQRAEGAERFATLYSTRDRIPVYSAFRAPRPAPGGAEQRWLVEPQIDDPNSNLEEAINEAEAITSVNSLGSKQALNTDYLDSDYQRGQLYPFSLSSDVQVATFTLTNSAPMTQSFQERWYVNLHSLMDRALTPQCGSGEDLYILTGTVPSDYRVKDKVAVPEFVWLAACCAVPGGGWAMGFVKHTRDSDIIEDVMVKDLQKLLPFNPQLFQNNCGETEQDTEKMKKILEVVNQIQDEERMVQSQKSSSPLSSTRSKRSTLLPPEASEGSSSFLGKLMGFIATPFIKLFQLIYYLVVAILKNIVYFLWCVTKQVINGIESCLYRLGSATISYFMAIGEELVSIPWKVLKVVAKVIRALLRILCCLLKAICRVLSIPVRVLVDVATFPVYTMGAIPIVCKDIALGLGGTVSLLFDTAFGTLGGLFQVVFSVCKRIGYKVTFDNSGEL [ENDOD1] | 1.24 | -2.33 | -0.0976 | -0.0882 | 57.6 | 56.6 |
| MGTDSRAAKALLARARTLHLQTGNLLNWGRLRKKCPSTHSEELHDCIQKTLNEWSSQINPDLVREFPDVLECTVSHAVEKINPDEREEMKVSAKLFIVESNSSSSTRSAVDMACSVLGVAQLDSVIIASPPIEDGVNLSLEHLQPYWEELENLVQSKKIVAIGTSDLDKTQLEQLYQWAQVKPNSNQVNLASCCVMPPDLTAFAKQFDIQLLTHNDPKELLSEASFQEALQESIPDIQAHEWVPLWLLRYSVIVKSRGIIKSKGYILQAKRRGS [GCLM] | 0.373 | 1.08 | 0.229 | -0.0843 | 48.3 | 49 |
| MGTKAQVERKLLCLFILAILLCSLALGSVTVHSSEPEVRIPENNPVKLSCAYSGFSSPRVEWKFDQGDTTRLVCYNNKITASYEDRVTFLPTGITFKSVTREDTGTYTCMVSEEGGNSYGEVKVKLIVLVPPSKPTVNIPSSATIGNRAVLTCSEQDGSPPSEYTWFKDGIVMPTNPKSTRAFSNSSYVLNPTTGELVFDPLSASDTGEYSCEARNGYGTPMTSNAVRMEAVERNVGVIVAAVLVTLILLGILVFGIWFAYSRGHFDRTKKGTSSKKVIYSQPSARSEGEFKQTSSFLV [F11R] | -2.07 | -2.09 | 0.284 | -0.139 | 58.9 | 59.5 |
| MGTPASGRKRTPVKDRFSAEDEALSNIAREAEARLAAKRAARAEARDIRMRELERQQKEYSLHSFDRKWGQIQKWLEDSERARYSHRSSHHRPYLGVEDALSIRSVGSHRYDMFKDRSSRLSSLNHSYSHSHGMKKRSSDSHKDLLSGLYFDQRNYSSLRHSKPTSAYYTRQSSSLYSDPLATYKSDRASPTANSGLLRSASLASLYNGGLYNPYGPRTPSECSYYSSRISSARSSPGFTNDDTASIVSSDRASRGRRESVVSAADYFSRSNRRGSVVSEVDDISIPDLSSLDEKSDKQYAENYTRPSSRNSASATTPLSGNSSRRGSGDTSSLIDPDTSLSELRDIYDLKDQIQDVEGRYMQGLKELKESLSEVEEKYKKAMVSNAQLDNEKNNLIYQVDTLKDVIEEQEEQMAEFYRENEEKSKELERQKHMCSVLQHKMEELKEGLRQRDELIEEKQRMQQKIDTMTKEVFDLQETLLWKDKKIGALEKQKEYIACLRNERDMLREELADLQETVKTGEKHGLVIIPDGTPNGDVSHEPVAGAITVVSQEAAQVLESAGEGPLDVRLRKLAGEKEELLSQIRKLKLQLEEERQKCSRNDGTVGDLAGLQNGSDLQFIEMQRDANRQISEYKFKLSKAEQDITTLEQSISRLEGQVLRYKTAAENAEKVEDELKAEKRKLQRELRTALDKIEEMEMTNSHLAKRLEKMKANRTALLAQQ [LRRFIP2] | -3.39 | -4.14 | 0.672 | 0.251 | 53.3 | 53.7 |
| MGTPKPRILPWLVSQLDLGQLEGVAWVNKSRTRFRIPWKHGLRQDAQQEDFGIFQAWAEATGAYVPGRDKPDLPTWKRNFRSALNRKEGLRLAEDRSKDPHDPHKIYEFVNSGVGDFSQPDTSPDTNGGGSTSDTQEDILDELLGNMVLAPLPDPGPPSLAVAPEPCPQPLRSPSLDNPTPFPNLGPSENPLKRLLVPGEEWEFEVTAFYRGRQVFQQTISCPEGLRLVGSEVGDRTLPGWPVTLPDPGMSLTDRGVMSYVRHVLSCLGGGLALWRAGQWLWAQRLGHCHTYWAVSEELLPNSGHGPDGEVPKDKEGGVFDLGPFIVDLITFTEGSGRSPRYALWFCVGESWPQDQPWTKRLVMVKVVPTCLRALVEMARVGGASSLENTVDLHISNSHPLSLTSDQYKAYLQDLVEGMDFQGPGES [IRF3] | 0.111 | 1.23 | -0.0358 | 0.174 | 51.4 | 51.7 |
